Assay results published in US20240398899A1 (priority 2021, published 2024).
Several values for one entry are separate records, joined by “and”; a condition that tells them apart may be missing. Equal entries are not always repeated.

Assays:
[1] = tested on: SH-SY5Y neuronal cells; test: Cytoprotective effect against MPP+ iodide induced damage, MTT assay; conditions: MPP+ iodide 1 mM
Description: The Human Neuronal SH-SY5Y Cells were counted using hemocytometer and plated in 96 well plate at a density of 25,000 cells/well and incubated at 37° C. for 24 h. After incubation, cells were treated with recombinant lectin protein having the sequence of SEQ ID NO: 1 at concentrations ranging from 0.001 μg/ml 50 μg/ml for 24 h. After 24 h of treatment, cells were exposed to neurotoxin (MPP+ iodide, 1 mM) for 24 h. Cells treated with MPP+ iodide alone were included as negative control. Untreated cells were included as control. […] After treatment, the cytoprotective effect of SEQ ID NO: 1 on cell viability was assessed by 3-(4,5-dimethythiazol-2-yl)-2,5-diphenyl tetrazolium bromide (MTT) assay: The plate was taken out and 20 μl of 5 mg/ml of MTT 3-(4,5-dimethythiazol-2-yl)-2,5-diphenyl tetrazolium bromide solution was added to all the wells. The SH-SY5Y cells were incubated for 3 h at 37° C. The supernatant was aspirated and 150 μl of DMSO was added to each well to dissolve formazan crystals. The absorbance of each well was read at 540 nm using Synergy HT micro plate reader. The protective effect of the SEQ ID NO: 1 on survival of SH-SY5Y cells against MPP+ iodide induced damage was determined as: The viability of cells was determined as:
Where, the percentage cytotoxicity corresponding to each treatment was calculated as follows:
[formula] • X=Absorbance of cells treated with MPP+ iodide/recombinant lectin having SEQ ID NO: 1+MPP+Iodide • R=Absorbance of Control cells (Untreated) • Percentage protection was calculated as:
[(Absorbance of SEQ ID NO:1+MPP+Iodide)−(Absorbance of MPP+Iodide)/(Absorbance of Untreated)−(Absorbance of MPP+Iodide alone)]*100

[2] = tested on: neuronal cells (pc12); test: Neurite formation, basal model; assay type: cell-based, rat
Description: Cells were counted using haemocytometer and plated in 24-well plates at the densities corresponding to 1×10^4 cells/well/500 μl of the growth medium. The cells were then incubated for 48 h in 5% CO2 incubator at 37° C. Effect of Recombinant Lectin having SEQ ID NO: 1 on neurite formation was evaluated in both basal and MPP+ damage induced model.
For basal model the percent increase in neurite formation was determined as follows

[3] = tested on: Cerebral Cortex and Hippocampus; test: Brain histopathology (H&E), scopolamine induced dementia; assay type: in vivo, Mus musculus (Swiss Albino)
Description: Mouse brains were collected after humane sacrifice and fixed in 10% neutral buffered formalin. Then, the brain tissue was trimmed, processed and embedded in paraffin. 5 Micron sections were prepared in slide as a specimen for hematoxylin-eosin (H&E) staining. The hippocampal lesions were assessed microscopically at 100× magnification.
Detailed histological investigation was performed H&E stained brain tissues. Scoring was given according to the neuronal damage. […] The grading criteria for Histopathology score was: Normal or no injury—0; Rare neuronal injury (<5 clusters)—1; Occasional neuronal injury (5-15 clusters)—2; Frequent neuronal injury (>15 clusters)—3; Diffused neuronal injury-4.

[4] = tested on: Brain NGF (Nerve Growth Factor); test: Brain biomarker ELISA, scopolamine induced dementia; assay type: in vivo, Mus musculus (Swiss Albino); conditions: for brain nerve growth factor (NGF) Mean: scopolamine 2.5 mg/kg i.p., mice
Description: Healthy male Swiss albino mice (n=48) were selected and randomized based on body weight (n=8 per Group) into 6 groups as mentioned in table no-1. The control group G1 was treated intravenously with vehicle daily till the experiment completion. Group G2 was considered as negative control and treated with vehicle. […] Group G4, G5 &G6 animals were treated with the test item recombinant lectin protein having SEQ ID NO: 1 at the dose of 0.5 mg/kg, 0.25 mg/kg and 0.125 mg/kg, respectively. All the test items were given intravenously (i.v) daily at the dose volume of 5 ml/kg for 14 Days. The body weight was recorded daily throughout the experimental period. […] One hour after the last dose of test items (on Day 14) all the animals were injected with scopolamine hydrobromide at the dose of 2.5 mg/kg, i.p., except the normal control group G1. Passive avoidance test was conducted 30 min after scopolamine injection.
After passive avoidance test screening models of memory, the animals were sacrificed humanely. The whole brain was carefully removed from the skull and weighed. Brain was dissected into two portions
10% w/v brain homogenate (100 mg/mL) was prepared by homogenizing it in ice-chilled phosphate buffer. The homogenate was subsequently centrifuged using a refrigerated centrifuge at 3000 rpm for 10 min, and the supernatant was separated and used for the biochemical estimations.
Following biomarkers was estimated using ELISA kit as per manufacturer's instruction. • Brain NGF (Nerve Growth Factor), CUSABIO, Catalog No. CSB-E04684m • Acetylcholinesterase, CUSABIO, Catalog No. CSB-E17521m • TNF alpha, CUSABIO, Catalog No. CSB-E04741m

[5] = tested on: SH-SY5Y neuronal cells; test: Annexin-V staining of apoptotic cells against MPP+ iodide damage; assay type: cell-based, human; conditions: MPP+ iodide 1 mM; for % Decrease in Apoptotic cells (wrt MPP + iodide): Annexin
Description: After 24 h of treatment, cells were exposed to damage (MPP+ iodide 1 mM) for 24 h. […] Untreated cells were included as control. Cells treated with Deprenyl served as positive control. After treatment, cells were harvested by trypsinization and processed for Annexin V assay as follows: Cell were gently harvested into pre-labeled sterile centrifuge tubes and centrifuged at 300×g for 5-7 min. After 24 h of treatment, cells were exposed to damage (MPP+ iodide 1 mM) for 24 h. Cells treated with MPP+ iodide alone were included as Control. Untreated cells were included as negative control. Cells treated with Deprenyl served as positive control. After treatment, cells were harvested by trypsinization and processed for Annexin V assay as follows: Cell were gently harvested into pre-labelled sterile centrifuge tubes and centrifuged at 300×g for 5-7 min. Supernatant were discarded and the pellet was resuspended in 200 μl of fresh culture medium. 100 μl of cell suspension was transferred into pre-labeled sterile centrifuge tubes. 100 μl of Annexin-V reagent was added to each tube and incubated for 30 min at RT in dark. Cells stained for Annexin-V were then transferred into 96-well plates and acquired on flow cytometer (Guava technologies). Percentage of Annexin-V positive cells was determined.
Percent inhibition in apoptotic cells=[(% Annexin positive cells in MPP+iodide alone)−(% Annexin positive cells in Recombinant Lectin having SEQ ID NO:1+MPP+iodide)/% Annexin positive cells in MPP+iodide alone]*100

[6] = G4: 0.5 mg/kg i.v. qdx14, score 0 normal to 4 diffused neuronal injury
[7] = G5: 0.25 mg/kg i.v. qdx14, score 0 normal to 4 diffused neuronal injury
[8] = G6: 0.125 mg/kg i.v. qdx14, score 0 normal to 4 diffused neuronal injury

B1: SEQ ID NO: 1: variant of the S. rolfsii lectin amino acid sequence (reported as Rec-2 in WO2010/095143) (protein)
chain: TYKITVRVYQTNPDAFFHPVEKTVWKYANGGTWTITDDQHVLTMGGSGTSGTLRFHADNGESFTATFGVHNYKRWCDIVTNLAADETGMVINQQYYSQKNREEARERQLSNYQVKNAKGRNFQIVYTEAEGNDLHANLIIG
[1]; 0.001 μg/mL
  Percentage Protection: 58.6%
  Percentage Viability (w.r.t control): 85.1%
  Percentage cytotoxicity: 14.9%
[1]; 0.01 μg/mL
  Percentage Protection: 61.8%
  Percentage Viability (w.r.t control): 86.3%
  Percentage cytotoxicity: 13.7%
[1]; 0.05 μg/mL
  Percentage Protection: 68.8%
  Percentage Viability (w.r.t control): 88.8%
  Percentage cytotoxicity: 11.2%
[1]; 0.1 μg/mL
  Percentage Protection: 52.6%
  Percentage Viability (w.r.t control): 83%
  Percentage cytotoxicity: 17%
[1]; 1 μg/mL
  Percentage Protection: 40.2%
  Percentage Viability (w.r.t control): 78.8%
  Percentage cytotoxicity: 21.2%
[1]; 5 μg/mL
  Percentage Protection: 49.6%
  Percentage Viability (w.r.t control): 82.1%
  Percentage cytotoxicity: 17.9%
[1]; 10 μg/mL
  Percentage Protection: 85.6%
  Percentage Viability (w.r.t control): 94.9%
  Percentage cytotoxicity: 5.1%
[1]; 25 μg/mL
  Percentage Protection: 78.6%
  Percentage Viability (w.r.t control): 92.4%
  Percentage cytotoxicity: 7.6%
[1]; 50 μg/mL
  Percentage Protection: 62.1%
  Percentage Viability (w.r.t control): 86.6%
  Percentage cytotoxicity: 13.4%
[2]; 0.001 μg/ml
  % Protection in the formation of Neurites (w.r.t. MPP+): 54.7%
  Average No. of Neurites: 27
[2]; 0.01 μg/ml
  % Protection in the formation of Neurites (w.r.t. MPP+): 47.2%
  Average No. of Neurites: 26
[2]; 0.1 μg/ml
  % Protection in the formation of Neurites (w.r.t. MPP+): 18.9%
  Average No. of Neurites: 21
[2]; 5 μg/ml
  % Protection in the formation of Neurites (w.r.t. MPP+): 34%
  Average No. of Neurites: 24
[3]; [6]
  Histopathology (Mean score) Cerebral Cortex Cortex: 0
  Histopathology (Mean score) Cerebral Cortex Meninges: 0
  Histopathology (Mean score) Hippocampus CA1: 0
  Histopathology (Mean score) Hippocampus CA3: 0.67
  Histopathology (Mean score) Hippocampus DG: 0
[3]; [7]
  Histopathology (Mean score) Cerebral Cortex Cortex: 0
  Histopathology (Mean score) Cerebral Cortex Meninges: 0
  Histopathology (Mean score) Hippocampus CA1: 0
  Histopathology (Mean score) Hippocampus CA3: 0.6
  Histopathology (Mean score) Hippocampus DG: 0
[3]; [8]
  Histopathology (Mean score) Cerebral Cortex Cortex: 0
  Histopathology (Mean score) Cerebral Cortex Meninges: 0
  Histopathology (Mean score) Hippocampus CA1: 0
  Histopathology (Mean score) Hippocampus CA3: 1
  Histopathology (Mean score) Hippocampus DG: 0
[4]; 0.25 mg/kg, scopolamine treated mice
  level of NGF (brain): 62 µg/mL
[4]; G4: 0.5 mg/kg i.v. qdx14
  brain nerve growth factor (NGF) Mean: 71.6 pg/mL and 71.59 pg/mL
[4]; G5: 0.25 mg/kg i.v. qdx14
  brain nerve growth factor (NGF) Mean: 61.96 pg/mL
[4]; G6: 0.125 mg/kg i.v. qdx14
  brain nerve growth factor (NGF) Mean: 38.62 pg/mL
[5]; 0.001 μg/mL
  % Apoptotic cells (Anenxin + ve): 1.8%
  % Decrease in Apoptotic cells (wrt MPP + iodide): 56.8%
[5]; 0.01 μg/mL
  % Apoptotic cells (Anenxin + ve): 1.2%
  % Decrease in Apoptotic cells (wrt MPP + iodide): 70.4%
[5]; 0.05 μg/mL
  % Apoptotic cells (Anenxin + ve): 2.6%
  % Decrease in Apoptotic cells (wrt MPP + iodide): 35.8%
[5]; 0.1 μg/mL
  % Apoptotic cells (Anenxin + ve): 3.1%
  % Decrease in Apoptotic cells (wrt MPP + iodide): 23.5%
[5]; 1 μg/mL
  % Apoptotic cells (Anenxin + ve): 2.3%
  % Decrease in Apoptotic cells (wrt MPP + iodide): 43.2%
